How the values were obtained:
FOLR1-mycHis [1] = target: T1, FOLR1-mycHis (human, UniProt P15328 25-233); experiment: SPR as in Example 29, antibody captured, FOLR1-mycHis as analyte
T1 construct: Secreted from CHO/DG44 cells, purified on Ni-NTA; Residues 1-233 include the native signal peptide; also called non-reducing FOLR1-mycHis; recombinant protein having myc and His tag at the C-terminus of FOLR1 (1-233 amino acids); not shown: myc and His tag at the C-terminus
Method: (§1) The affinities of ChRA15-7Acc antibody and MORAb-003 antibody for FOLR1 were measured by a surface plasmon resonance method. The measurement was carried out in the same manner as in Example 16, except that a Human Antibody Capture Kit (GE Healthcare) was immobilized onto the CM5 chip by amine coupling and FOLR1-mycHis prepared by five-step dilution (12.3, 37, 111, 333, 1000 ng/mL) was applied as an analyte.
(§2) Affinities of HV7LV3-CDRH3-Cys101 modified antibodies for FOLR1 were measured by the surface plasmon resonance method in the same manner as in Example 29.

FOLR1-mycHis [2] = target: T1, FOLR1-mycHis; experiment: surface plasmon resonance as in Example 29
Method: as §1, §2

FOLR1-mycHis [3] = target: T1, FOLR1-mycHis; experiment: SPR (Biacore), antibody captured by Human Antibody Capture Kit on a CM5 chip, FOLR1-mycHis as analyte (12.3-1000 ng/mL, as in Example 29); affinity relative to ChRA15-7Acc = 100
Method: as §1, §2

[4] = target: T2, cynomolgus monkey FOLR1-Fc (cynomolgus monkey; human); experiment: ELISA, antigen coated at 2 ug/mL, antibody 1.4-1000 ng/mL, goat anti-human kappa-HRP, ABTS, absorbance at 415 nm [c]
T2 construct: Expressed in CHO/Ms704 cells; also called CyFOLR1-Fc; not shown: Human IgG1 Fc (Hinge region and CH2-CH3 region) from pKANTEX93, added to the C-terminus
T2 sequence (chain, as listed by the source): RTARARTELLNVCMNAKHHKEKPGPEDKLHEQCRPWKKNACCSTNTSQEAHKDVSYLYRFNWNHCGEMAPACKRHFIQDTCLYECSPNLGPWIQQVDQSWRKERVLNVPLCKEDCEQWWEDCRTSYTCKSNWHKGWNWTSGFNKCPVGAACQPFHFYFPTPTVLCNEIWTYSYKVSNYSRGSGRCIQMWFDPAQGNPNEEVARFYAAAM
Method: First, each 50 μL/well of FOLR1-Fc, FOLR2-Fc, FOLR3-Fc, and cynomolgus monkey FOLR1-Fc which were prepared at a concentration of 2 μg/mL using PBS was added in a 96-well plate for ELISA and incubated at 4° C. overnight. It was washed with PBS, and then 200 μL/well of 1% BSA/PBS wad added at room temperature for 1 hour for blocking. It was washed with PBS again, and each 50 μL/well of HuRA15-7CTDF antibody, ChRA15-7DF antibody, MORAb-003DF antibody, and defucosylated anti-DNP human IgG1 (DNPDF) antibody as a negative control which were prepared by seven-step dilution (1.4, 4.1, 12, 37, 111, 333, 1000 ng/mL) in 1% BSA/PBS was added, and allowed to react at room temperature for 1 hour.
Each well was washed with 0.05% tween20/PBS, and then 50 μL/well of Goat anti-Human kappa-HRP (Southern Biotech) which was diluted 2000-fold using 1% BSA/PBS was added and allowed to react at room temperature for 1 hour. Each well was washed with PBS, and then 50 μL/well of ABTS substrate solution was added, and allowed to react at room temperature. After sufficient color development was confirmed, 5% SDS solution was added to terminate the reaction, and absorbance at 415 nm was measured.

T1 sequence (P15328 25-233): as the sequence (chain, as listed by the source) above, with T2I, R4W, K37R, P146A, Y171H counted along it

| affinity as percent of the affinity of ChRA15-7Acc antibody (FOLR1-mycHis [1]) [%] | affinity as percent of the affinity of ChRA15-7Acc antibody (FOLR1-mycHis [2]) | Binder | other results |
| --- | --- | --- | --- |
| – | – | modified humanized RA15-7 antibody HV10LV6 (antibody, human IgG1, V domains shown, Human IgG1 kappa constant regions of pKANTEX93; transiently made in FUT8 double-knockout CHO-K1 cells) VH: EVQLVESGGGLVQPGGSMRLSCAASGFTFTDFYMNWIRQPAGKAPEWLGFIRNKANGYTTEFNPSVKGRFTISRDNSKNSLYLQMNSLKTEDTATYYCARCLYGYAYYYVMDAWGQGTLVTVSS VL: DIQMTQSPSSLSASLGDRVTITCRTSEDIFRNLAWYQQKPGKSPQLLIYDTNRLADGVPSRFSGSGSGTDYTLTISSLQPEDFAGYFCQQYDNYPLTFGQGTKLEIK | affinity as percent of the affinity of ChRA15-7Acc (FOLR1-mycHis [1]): ~70% |
| 80 | ≥ 50 % of the affinity of ChRA15-7Acc antibody | HV7LV3-CDRH3-Cys101 modified antibody C101F (antibody, human IgG1, V domains shown, Human IgG1 kappa constant regions of pKANTEX93; transiently made in FUT8 double-knockout CHO-K1 cells; also called antibody in which Cys101 was modified with Phe) VH: EVQLVESGGGLVQPGGSLRLSCAASGFTFTDFYMNWVRQPPGKAPEWLGFIRNKANGYTTEFNPSVKGRFTISRDNSKNSLYLQMNSLKTEDTATYYCARFLYGYAYYYVMDAWGQGTLVTVSS VL: DIQMTQSPSSLSASLGDRVTITCRTSEDIFRNLAWYQQKPGKAPKLLIYDTNRLADGVPSRFSGSGSGTDYTLTISSLQPEDFATYFCQQYDNYPLTFGQGTKLEIK | – |
| 88 | ≥ 50 % of the affinity of ChRA15-7Acc antibody | HV7LV3-CDRH3-Cys101 modified antibody C101T (HuRA15-7CT) (antibody, human IgG1, V domains shown, Expressed in FUT8-knockout CHO-K1 cells (Fc glycan without core fucose); not carried by the letters., Human IgG1 kappa constant regions of pKANTEX93; transiently made in FUT8 double-knockout CHO-K1 cells; Same vector as HuRA15-7CTDF; also called antibody in which Cys101 was modified with Thr) VH: EVQLVESGGGLVQPGGSLRLSCAASGFTFTDFYMNWVRQPPGKAPEWLGFIRNKANGYTTEFNPSVKGRFTISRDNSKNSLYLQMNSLKTEDTATYYCARTLYGYAYYYVMDAWGQGTLVTVSS VL: DIQMTQSPSSLSASLGDRVTITCRTSEDIFRNLAWYQQKPGKAPKLLIYDTNRLADGVPSRFSGSGSGTDYTLTISSLQPEDFATYFCQQYDNYPLTFGQGTKLEIK | – |
| 55 | ≥ 50 % of the affinity of ChRA15-7Acc antibody | HV7LV3-CDRH3-Cys101 modified antibody C101V (antibody, human IgG1, V domains shown, Human IgG1 kappa constant regions of pKANTEX93; transiently made in FUT8 double-knockout CHO-K1 cells; also called antibody in which Cys101 was modified with Val) VH: EVQLVESGGGLVQPGGSLRLSCAASGFTFTDFYMNWVRQPPGKAPEWLGFIRNKANGYTTEFNPSVKGRFTISRDNSKNSLYLQMNSLKTEDTATYYCARVLYGYAYYYVMDAWGQGTLVTVSS VL: DIQMTQSPSSLSASLGDRVTITCRTSEDIFRNLAWYQQKPGKAPKLLIYDTNRLADGVPSRFSGSGSGTDYTLTISSLQPEDFATYFCQQYDNYPLTFGQGTKLEIK | – |
| 59 | ≥ 50 % of the affinity of ChRA15-7Acc antibody | HV7LV3-CDRH3-Cys101 modified antibody C101M (antibody, human IgG1, V domains shown, Human IgG1 kappa constant regions of pKANTEX93; transiently made in FUT8 double-knockout CHO-K1 cells; also called antibody in which Cys101 was modified with Met) VH: EVQLVESGGGLVQPGGSLRLSCAASGFTFTDFYMNWVRQPPGKAPEWLGFIRNKANGYTTEFNPSVKGRFTISRDNSKNSLYLQMNSLKTEDTATYYCARMLYGYAYYYVMDAWGQGTLVTVSS VL: DIQMTQSPSSLSASLGDRVTITCRTSEDIFRNLAWYQQKPGKAPKLLIYDTNRLADGVPSRFSGSGSGTDYTLTISSLQPEDFATYFCQQYDNYPLTFGQGTKLEIK | – |
| – | – | modified humanized RA15-7 antibody HV10LV4 (antibody, human IgG1, V domains shown, Human IgG1 kappa constant regions of pKANTEX93; transiently made in FUT8 double-knockout CHO-K1 cells) VH: EVQLVESGGGLVQPGGSMRLSCAASGFTFTDFYMNWIRQPAGKAPEWLGFIRNKANGYTTEFNPSVKGRFTISRDNSKNSLYLQMNSLKTEDTATYYCARCLYGYAYYYVMDAWGQGTLVTVSS VL: DIQMTQSPSSLSASLGDRVTITCRTSEDIFRNLAWYQQKPGKAPQLLIYDTNRLADGVPSRFSGSGSGTDYTLTISSLQPEDFATYFCQQYDNYPLTFGQGTKLEIK | affinity as percent of the affinity of ChRA15-7Acc (FOLR1-mycHis [1]): ~70% |
| – | – | C101G (antibody, V domains shown, also called HV7LV3-CDRH3-Cys101 modified antibody C101G; antibody in which Cys101 was modified with Gly) VH: EVQLVESGGGLVQPGGSLRLSCAASGFTFTDFYMNWVRQPPGKAPEWLGFIRNKANGYTTEFNPSVKGRFTISRDNSKNSLYLQMNSLKTEDTATYYCARGLYGYAYYYVMDAWGQGTLVTVSS VL: DIQMTQSPSSLSASLGDRVTITCRTSEDIFRNLAWYQQKPGKAPKLLIYDTNRLADGVPSRFSGSGSGTDYTLTISSLQPEDFATYFCQQYDNYPLTFGQGTKLEIK | binding result (FOLR1-mycHis [3]): binds |
| – | – | ChRA15-7DF antibody (antibody, human IgG1, V domains shown, sugar chain without fucose, made in CHO/Ms704 cells; also called defucosylated rat/human chimeric RA15-7) VH: EVKLLESGGGLVQPGGSMRLSCAASGFTFTDFYMNWIRQPAGKAPEWLGFIRNKANGYTTEFNPSVKGRFAISRDNTQNMLYLQMNTLRAEDTATYYCARCLYGYAYYYVMDAWGQGTSVTVSS VL: DIQMTQSPASLSASLGETVTIECRTSEDIFRNLAWYQQRPGNSPQLLIYDTNRLADGVPSRFSGSGSGTQYSLKINSLQSEDVAGYFCQQYDNYPLTFGSGTKLEIK | binding result [4]: binds |

Source: patent publication US20160060340A1 (Kyowa Kirin, published 2016)
